{
  "source": "patent US20120252756A1",
  "about": "“Pharmaceutical Compositions and Methods for Treating, Controlling, Ameliorating, or Reversing Conditions of the Eye” (priority 2010, published 2012)",
  "molecules": {"B1": {"name": "Heparin-binding EGF-like growth factor (protein, UniProt Q99075 63-148, looked up)", "Heparin-binding EGF-like …": "DLQEADLDLLRVTLSSKPQALATPNKEEHGKRKKKGKGLGKKRDPCLRKYKDFCIHGECKYVKELRAPSCICHPGYHGERCHGLSL", "notes": "growth factor used as positive assay control"}},
  "key": {"[1]": {"test_system": "Riken human corneal epithelial cell line (RT-HCEpiC)", "test": "Monolayer scratch assay (corneal re-epithelization)", "assay_type": "cell-based", "conditions": "10 ng/mL; 16 hours after wounding", "experimental": "A single horizontal scratch was made to the HCEpiC monolayer. Cells were then incubated with PEG 3350 or HPMC 2910 in basal culture medium. Wound healing was calculated as the difference in the gap width between baseline measurements and after 16-hour incubation and is expressed as percentage gap closure. Bars represent the difference in the gap width between baseline measurements and after 16-hour incubation with treatment groups (n=3); lines on bars represent the standard error of the means. Raw data were analyzed with a one-way ANOVA followed by the Dunnett's Method test. * denotes statistical significance versus vehicle control; p<0.05.\nWe have developed an in vitro wound healing model using transformed human corneal epithelial cells insulted with a scratch to the monolayer and monitored for growth into the resulting cell-free gap. […]\nCells were examined and photographed after scratch and after 16 hours incubation with treatment to monitor closure of the cell-free gap using a light microscope. The percent closure was determined using the following equation. […]\nComparisons were made between treatment groups and the vehicle controls to determine the effect of the treatment on re-epithelization. […] All data was analyzed utilizing the statistical analysis software JMP (SAS Institute, Cary, N.C.)."}, "PI3K": {"test_system": "PI3K", "test": "Western blot of PI3K phosphorylation in RT-HCEpiC", "assay_type": "cell-based, human", "conditions": "10 ng/mL for 10 minutes", "experimental": "(§1) Human corneal epithelial cells (HCEpiC) were treated with 10% PEG-3350 in serum-free media over the course of 16 hours in an attempt to understand the molecular mechanisms behind the observed positive effect on corneal re-epithelization. Cell lysates were collected and assessed for protein activation by western blot using antibodies targeting key phosphorylation sites.\nRT-HCEpiC cell suspensions (2.5×10^5 cells/ml) were prepared in complete medium with 10% Fetal Bovine Serum (“FBS”) and added to each well of a 6-well plate, 2.5 mL suspension per well. When cells reached confluence, they were serum starved overnight in basal DMEM/F12. Treatments were delivered in basal medium; treatments include control, 10 ng/mL HB-EGF (Heparin-bi-binding EGF-like growth factor) for 10 minutes; or 10% PEG-3350 for 10, 15, 20, 30 minutes, 1, 2, 4, 6, or 16 hours. Cell lysates were assayed for protein concentration and evaluated for Akt, ERK, EGFR, and PI3K activation by Western blot.\n(§2) Culture medium was aspirated from each well and cells were washed with cold, non-sterile PBS twice. […] Cell lysates were assayed for protein concentration and analyzed by western blot. […]\n(§3) Western Blot: Analysis of Western blot band density in captured and stored digital images was done using the Quantity One software on the VersaDod MP 4000. Density of bands was quantified. […]"}, "EGFR": {"test_system": "EGFR", "test": "Western blot of EGFR phosphorylation in RT-HCEpiC", "assay_type": "cell-based, human", "conditions": "10 ng/mL for 10 minutes", "experimental": "as §1\n(§4) FIG. 11 is a graphical representation of peak phosphorylation time points for pAkt, pERK, and pEGFR. […] Cell lysates were collected and assessed for protein activation by western blot using antibodies targeting key phosphorylation sites. […] Ratio of phosphorylated protein to total, non-phosphorylated was quantified by densitometry.\n(§5) RT-HCEpiC cell suspensions (2.5×10^5 cells/ml) were prepared in complete medium with 10% Fetal Bovine Serum (“FBS”) and added to each well of a 6-well plate, 2.5 mL suspension per well. […] Cell lysates were assayed for protein concentration and evaluated for Akt, ERK, EGFR, and PI3K activation by Western blot.\nas §2, §3"}, "ERK": {"test_system": "ERK", "test": "Western blot of ERK phosphorylation in RT-HCEpiC", "assay_type": "cell-based, human", "conditions": "10 ng/mL for 10 minutes", "experimental": "as §1, §4, §5, §2, §3"}, "Akt": {"test_system": "Akt", "test": "Western blot of Akt phosphorylation in RT-HCEpiC", "assay_type": "cell-based, human", "conditions": "10 ng/mL for 10 minutes", "experimental": "as §1, §4, §5, §2, §3"}},
  "data": [
    {"molecule": "B1", "values": [
      {"measurement": "corneal re-epithelization (percent gap closure) versus vehicle control", "setting": "[1]", "value": "significantly increased"},
      {"measurement": "pPI3K", "setting": "PI3K", "value": "no effect"},
      {"measurement": "phosphorylation of EGFR", "setting": "EGFR", "value": "substantially increased"},
      {"measurement": "phosphorylation of ERK", "setting": "ERK", "value": "substantially increased"},
      {"measurement": "phosphorylation of Akt", "setting": "Akt", "value": "substantially increased"}
    ]}
  ]
}
